The DeepSol protein solubility set

assay: soluble on expression in E. coli; label from the status in PepcDB or PDB records

Q: Which “soluble on expression in E. coli” value does the source give for “VTTRDLTAAQFNETIQSSDMVLVDYWASWCGPCRAFAPTFAESSEKHPDVVHAKVDTEAERELAAAAQIRSIPTIMAFKNGKLLFNQAGALPPAALESLVQQLKAYEVEAGEATTQNGRAQQA” here?
A: soluble

Q: Which “soluble on expression in E. coli” value does the source give for “MSKTYHFIGIKGSGMSALALMLHQMGHNVQGSDVDKYYFTQRGLEQAGVTILPFSPNNISEDLEIIAGNAFRPDNNEELAYVIEKGYQFKRYHEFLGDFMRQFTSLGVAGAHGKTSTTGLLAHVLKNITDTSFLIGDGTGRGSANANYFVFEADEYERHFMPYHPEYSIITNIDFDHPDYFTGLEDVFNAFNDYAKQVQKGLFIYGEDPKLHEITSEAPIYYYGFEDSNDFIAKDITRTVNGSDFKVFYNQEEIGQFHVPAYGKHNILNATAVIANLYIMGIDMALVAEHLKTFSGVKRRFTEKIIDDTVIIDDFAHHPTEIIATLDAARQKYPSKEIVAIFQPHTFTRTIALLDEFAHALSQADSVYLAQIYGSAREVDNGEVKVEDLAAKIVKHSDLVTVENVSPLLNHDNAVYVFMGAGDIQLYERSFEELLANLTKNTQ” here?
A: not soluble

Q: For “MSFDGFFLHHMTAELREQVLYGRIQKVNQPFERELVLTIRNNRQNYKLLLSAHPVFGRIQTTKAELPNPQNPNTYTMIMRKYLQGAVIEDIQQLENDRVLEISVSNKNEIGDSVKVTLVMEIMGKHSNIILIDKNENKIIESIKHVGFSQNSYRTILPGSTYIAPPKTDARNPFDISDENLFELLQTEDLSAKNLQKLFQGLGRDTANELSALLETDKLKNFRDFFNREVEPNLTTKAFSAVRFSDSQDQPEFETLSELLDYYYLDKAARDRVAQQASDLIHRVQNELEKNKKKLVKQEKELAATENAEEFRQKGELLTTFLSMVPNDKDSVELDNYYTGEKITIPLNVALTPNQNAQRYFKKYQKLKEAVKHLTGLIEETKQTINYLESVEFSLSQANMDEIEDIREELVQAGFMRRRSTDKRQKRKK”, which “soluble on expression in E. coli” value is on record?
A: not soluble

Q: Which “soluble on expression in E. coli” value does the source give for “MKIYIEGYGCTLNTADTQIIKNSVNEFEDFELTDNVDDSDIIVINTCIVRQETEHRMISRIEYFKSLDKKVVVAGCMAKALSKKIENLADVLIMPREAQHSGNILKDKLLKDFSEKNNESTQNLNFEDKLNEKIKKVSSQGLITALPICEGCLGSCTYCIVKRARGNLASYDRDLIVKKAEELVKSGTKCLLVTAQDTACYGLDNNDSLPNLINDISEIPEKFAMRIGMMHAKFAEPILDELIESFKSEKVVKFLHLPIQSGDDQVLKDMNRNYTVDEYISVLNEFKSKIKNLNFTTDVIVGFPTETEEAFENTLEIVKKIKPDFTHAAKYSQRKYTKAAILKQVDTKIRKERSEILNELRRELSYENNKRHIGETFEILVTKDNMGVTDNCKNVIFEEPAKIGEFKRVKITGAKTFGLSGKLINLEHHHHHH” here?
A: soluble

Q: With “MSLDQIKIAYIGGGSQGWARSLMSDLSIDERMSGTVALYDLDFEAAQKNEVIGNHSGNGRWRYEAVSTLKKALSAADIVIISILPGSLDDMEVDVHLPERCGIYQSVGDTVGPGGIIRGLRAVPIFAEIARAIRDYAPESWVINYTNPMSVCTRVLYKVFPGIKAIGCCHEVFGTQKLLAEMVTERLGIEVPRREDIRVNVLGINHFTWITKASYRHIDLLPIFREFSAHYGESGYELEGECWRDSVFCSAHRVAFDLFETYGAIPAAGDRHLAEFLPGPYLKQPEVWKFHLTPISFRKQDRAEKRQETERLIVQQRGVAEKASGEEGVNIIAALLGLGELVTNVNMPNQGQVLNLPIQAIVETNAFITRNRVQPILSGALPKGVEMLAARHISNQEAVADAGLTKDTGLAFQAFLNDPLVQIDRSDAEQLFNDMLQCIMQSEGHHHHHH” as the sequence, how does the “soluble on expression in E. coli” value read?
A: soluble

Q: For “MGRNRIKKVTERLPLPPNARRVEDPEMNMSREVVEDPGVPGTQDVTFAVAEVNGVETGRLPVANVVVTPAHEAVVRVGTKPGTEVPPVIDGSIWDAIAGCEAGGNWAINTGNGYYGGVQFDQGTWEANGGLRYAPRADLATREEQIAVAEVTRLRQGWGAWPVCAARAGAR”, which “soluble on expression in E. coli” value is on record?
A: soluble

Q: With “MERREEQPGAAGAGAAPALDFTVENVEKALHQLYYDPNIENKNLAQKWLMQAQVSPQAWHFSWQLLQPDKVPEIQYFGASALHIKISRYWSDIPTDQYESLKAQLFTQITRFASGSKIVLTRLCVALASLALSMMPDAWPCAVADMVRLFQAEDSPVDGQGRCLALLELLTVLPEEFQTSRLPQYRKGLVRTSLAVECGAVFPLLEQLLQQPSSPSCVRQKVLKCFSSWVQLEVPLQDCEALIQAAFAALQDSELFDSSVEAIVNAISQPDAQRYVNTLLKLIPLVLGLQEQLRQAVQNGDMETSHGICRIAVALGENHSRALLDQVEHWQSFLALVNMIMFCTGIPGHYPVNETTSSLTLTFWYTLQDDILSFEAEKQAVYQQVYRPVYFQLVDVLLHKAQFPSDEEYGFWSSDEKEQFRIYRVDISDTLMYVYEMLGAELLSNLYDKLGRLLTSSEEPYSWQHTEALLYGFQSIAETIDVNYSDVVPGLIGLIPRISISNVQLADTVMFTIGALSEWLADHPVMINSVLPLVLHALGNPELSVSSVSTLKKICRECKYDLPPYAANIVAVSQDVLMKQIHKTSQCMWLMQALGFLLSALQVEEILKNLHSLISPYIQQLEKLAEEIPNPSNKLAIVHILGLLSNLFTTLDISHHEDDHEGPELRKLPVPQGPNPVVVVLQQVFQLIQKVLSKWLNDAQVVEAVCAIFEKSVKTLLDDFAPMVPQLCEMLGRMYSTIPQASALDLTRQLVHIFAHEPAHFPPIEALFLLVTSVTLTLFQQGPRDHPDIVDSFMQLLAQALKRKPDLFLCERLDVKAVFQCAVLALKFPEAPTVKASCGFFTELLPRCGEVESVGKVVQEDGRMLLIAVLEAIGGQASRSLMDCFADILFALNKHCFSLLSMWIKEALQPPGFPSARLSPEQKDTFSQQILRERVNKRRVKEMVKEFTLLCRGLHGTDYTADY” as the sequence, how does the “soluble on expression in E. coli” value read?
A: soluble

Q: Which “soluble on expression in E. coli” value does the source give for “MSLSDLDRAIAQLRACRLIPEAQVRELCYKARELLIEEGNVVCVDAPVTICGDIHGQFHDLMELFRVGGDVPDTNYLFMGDFVDRGFYSLESEGHHHHHH” here?
A: not soluble

Q: For “MGSSHHHHHHSSGRENLYFQGHMVIIDNKHYLFIQKLGEGGFSYVDLVEGLHDGHFYALKRILCHEQQDREEAQREADMHRLFNHPNILRLVAYCLRERGAKHEAWLLLPFFKRGTLWNEIERLKDKGNFLTEDQILWLLLGICRGLEAIHAKGYAHRDLKPTNILLGDEGQPVLMDLGSMNQACIHVEGSRQALTLQDWAAQRCTISYRAPELFSVQSHCVIDERTDVWSLGCVLYAMMFGEGPYDMVFQKGDSVALAVQNQLSIPQSPRHSSALWQLLNSMMTVDPHQRPHIPLLLSQLEALQPPAPGQHTTQIL”, which “soluble on expression in E. coli” value is on record?
A: soluble

Q: For “MWLYYLQVVMDMRVYVEGYGCVLNTADTEIIKNSLKKHGFEVVNNLEEADIAIINTCVVRLETENRMIYRINELKNLGKEVVVAGCLPKALKNKVKGFLHIYPREAHKAGEILKNYVEKHYRMPYIEEDINKTLYKKLDYLKPSLITPLPICEGCIGNCSYCIVKIARGGLISYPREKIVNKAKELINKGAKCLLITAQDTACYGFDIGDNLANLLNELTQIKGEFIMRVGMMHAKNAELILDELIEVYQNEKVGKFLHLPLQSGDDEILKRMKRGYTVDEFKDIVNEFRRKIKNLCFTTDIIVGFPGETEEQFQNTLEVLRELKPDYIHGAKYSQRKGTEAAKMKQIDTKIRKRRSEILDKLRRELSYLNNKKYIGKAMKVLVLDEGKGYTDNFKVVKFEGGEVGEFRKVKITDAKTFGLKGELILLEHHHHHH”, which “soluble on expression in E. coli” value is on record?
A: soluble

Q: With “MGSDKIHHHHHHMQSQELERIARQIRLRDVQAVFEAGAGHVGGEMSAIDIMTALYFRVLRIWPNDPKNPARDRFVLSKGHTACALYVTLAKRGFIPEEEISTFLQPNSRLNGHPNCNKVPGVETNTGPLGHGLPVAVGMATAAKLSGEDYHTYVMTGDGEMQEGSNWEAIMSAAQFKLNNLTLVIDHNRFQQGAAIADTNDVAPLRPKLEAFGWEVTEINGNAMAEVVPALEHRGNRPHCIVAHTNKGHGISFMQDRVDWHHKVPSKEQYEIAVKELSEAL” as the sequence, how does the “soluble on expression in E. coli” value read?
A: not soluble

Q: For “MKKVGKSTFKFENCPIISDCFTIVGKKEGEGPLGLFFDMVVEDEYAGQKSWELAEGKLLNIAISKLIQKSGFTPDEVDLILSGDLLNQLTSSHFAARDLNIPFIGLYGACSTFALSVGLACVFVDGGFAKNIIAATSSHFCSAEKQFRYPLELGCQRPPTAQWTVTGAASFLIKPEDGTQKPKITHFTVGKILDYGIKDSNNMGACMAPAAFDTITTHLEDTKRDFTYYDIIVTGDLGYVGRKLLEELFKKEGKTLSFELLDCGILMFDQKTQDTGAGASGCAASACIFGGYFYKLMLQKTFKRILIVPTGALLSSSTVQLGESIPVIAHALSIEIELEHHHHHH”, which “soluble on expression in E. coli” value is on record?
A: not soluble

Q: For “MSQESSVLSESQEQLANNPKIEDTSPPSANSRDNSKPVLPWDYKNKAIEIKSFSGYKVNFTGWIRRDVREERQRGSEFTASDVKGSDDKATRKKEPADEDPEVKQLEKEGEDGLDS”, which “soluble on expression in E. coli” value is on record?
A: soluble

Q: With “MRLSDYNTPLSGMLAAQMGLQTTKQNLSNIHTPGYVRQMVNYESAGGSKGYAPEQRIGYGVQTLGVDRITDEVKTKQYNDQMSQFSYYAYMNSTLSRVESMVGTTGKNSLSSLMDGFFNAFREVAKNPEQSNYYDTLIAETGKFTSQVSRLAKNLDTVEAQTTEDIEAHVNEFNRLAASLAEANKKIGQAGTQVPNQLLDERDRIMTEMSKYADIEVSYEATNPNIASVRMNGVLTVNGQDTYPLQLQKDKKPMSVQISGTDIPLSGGTILSAIDTKAKITNYKDNLNEFVNSLKKQVNNTMKKELFVGEDAKKLELNPDFIKDISKMKISAETANNLAAITDKGYKDGLTYKQALDQFLVGVASDKSSVNAYQNIHKDLLEGIQQEKMSIEGVNMEEEMVNLMAFQKYFVANSKAITTMNEVFDSLFSIIR” as the sequence, how does the “soluble on expression in E. coli” value read?
A: not soluble

Q: For “MATKKDVHDLFLNHVNSNAVKTRKMMGEYIIYYDSVVIGGLYDNRLLVKATKSVRHQLQDNTLVSPYPGAKEMILIPDITEAINLTNLFELIKNDLKN”, which “soluble on expression in E. coli” value is on record?
A: not soluble

Q: For “MRPILLPDPPSLSTGVPDIFEQGGSHNVVRRAVVIGNGFPGSENQCIGLVRALGLSDNHLLYVFSLLGLSLSRSGNFILFSTSLECMNVQRRRNYLNFYGNNELRIESLVEHDAGAITEFRLQGTLRVTRPKGGLNEWLHWLPVGFHKKLDFILRHIYLYSRLMLGSKQSKYISSVPSENGGNVGLASILEADVKGIVNLARQTYEKDGPLIVIACGRDTISIASSIRRLASENVFVVQIQHPRSHLNRFDMVITPRHDYYPLTLEAQEQVPRFMRSWITPREPPQDHVVLTTGALHQIDYASLRKAASAWHDEFAALPKPLVVVNIGWPRSNCRYGADLAKQLTDSLLNVLATCGSVRITLSYKTPAKVSRVIFKELGDNPKVYIWNGQEPNPYMGHLAWGDAFVVTADSVSLISEACSTGKPVYVVGADHCKWKIAEFQKSLRERGVVRSFTGFEDMSESWSYPPLNDTAEAATRIRRELAARGWSLRS”, which “soluble on expression in E. coli” value is on record?
A: soluble

Q: Which “soluble on expression in E. coli” value does the source give for “MGSDKIHHHHHHMLIFVMKPRSNPVTGGFHSDKFANWNTMPLETLPVISLAGEPDALSRELGESFRTFGFAMVRDHGIDPDLIARAWDLTAQFFALPEAEKRSYYLDGLAGARGYTPFGTEIAKGARLHDLKEFWHVGRDLPAGHPLSASMPPNVWPARPEGFRQTFETLYGEFDKVGARILSRIAVWLGLDENWFDPAIEDGNSVMRLLHYPPVPDAESGAIRAGAHEDINLITLLLGAEEAGLELLSRQGEWIGVSPPEGALVVNIGDMLQRLTNHVLPSTTHRVRNPEGERARFSRYSMPFFLHLRSDFPFVTLPQCISDENPDRYPVSITADDYLQERLREIGLRK” here?
A: not soluble

Q: For “SNAMIRNIVFDLGGVLIHLNREESIRRFKAIGVADIEEMLDPYLQKGLFLDLESGRKSEEEFRTELSRYIGKELTYQQVYDALLGFLEEISAEKFDYIDSLRPDYRLFLLSNTNPYVLDLAMSPRFLPSGRTLDSFFDKVYASCQMGKYKPNEDIFLEMIADSGMKPEETLFIDDGPANVATAERLGFHTYCPDNGENWIPAITRLLREQK”, which “soluble on expression in E. coli” value is on record?
A: soluble

Q: With “MEQLTLQVEGMSCGHCVNAIESSVKELNGVEQVKVQLAEGTVEVTIDSSVVTLKDIVAVIEDQGYDVQ” as the sequence, how does the “soluble on expression in E. coli” value read?
A: not soluble
